Results taken from patent publication US20190382477A1 (COMPUGEN, published 2019).

T1: Human PVRIG-HIS (prepared in-house) (human, UniProt Q6DKI7 41-171, limits assumed)
T1 construct: In-house protein; also called PVRIG-His (Compugen, lot 20170623); biotinylated PVRIG-His; not shown: His tag
T1 sequence (looked up): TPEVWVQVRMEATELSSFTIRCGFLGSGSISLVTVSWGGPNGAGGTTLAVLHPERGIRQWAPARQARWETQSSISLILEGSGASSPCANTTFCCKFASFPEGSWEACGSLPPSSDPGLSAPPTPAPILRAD

T2: TIGIT on human CMV pp65-specific CD8+ T cells (human, UniProt Q495A1 22-244)
T2 sequence (looked up): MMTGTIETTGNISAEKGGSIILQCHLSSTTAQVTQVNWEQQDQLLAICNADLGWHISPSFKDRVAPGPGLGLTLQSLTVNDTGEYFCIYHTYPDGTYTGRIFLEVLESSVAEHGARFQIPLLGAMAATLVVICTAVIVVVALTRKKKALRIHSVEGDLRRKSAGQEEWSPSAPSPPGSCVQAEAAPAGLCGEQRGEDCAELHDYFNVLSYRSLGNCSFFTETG

T3: PVRIG on human CMV pp65-specific CD8+ T cells (human, UniProt Q6DKI7 41-326)
T3 sequence (looked up): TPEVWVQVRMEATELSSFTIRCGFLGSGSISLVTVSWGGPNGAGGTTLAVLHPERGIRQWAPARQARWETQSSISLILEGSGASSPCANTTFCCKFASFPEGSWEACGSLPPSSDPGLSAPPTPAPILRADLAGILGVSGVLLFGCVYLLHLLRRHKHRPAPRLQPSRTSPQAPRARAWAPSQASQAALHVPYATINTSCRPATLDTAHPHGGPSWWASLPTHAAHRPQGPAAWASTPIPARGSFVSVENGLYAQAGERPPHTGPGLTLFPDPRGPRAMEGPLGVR

T4: Human TIGIT-HIS monomer (Sino Biological) (human, UniProt Q495A1 22-141)
T4 construct: Bought protein; also called TIGIT-His (Sino Biological cat #10917-H08H); biotinylated TIGIT-His; not shown: His tag
T4 sequence (looked up): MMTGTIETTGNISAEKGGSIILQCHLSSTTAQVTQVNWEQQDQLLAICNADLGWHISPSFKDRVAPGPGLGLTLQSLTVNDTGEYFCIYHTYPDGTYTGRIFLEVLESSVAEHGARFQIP


Tests used:
[1] = target: TIGIT on human CMV pp65-specific CD8+ T cells (human) (UniProt Q495A1); test: flow cytometry on CMV pp65-specific CD8+ T cells, day 11, against an isotype control
[2] = target: T1, Human PVRIG-HIS (prepared in-house); test: SPR (ProteOn XPR 36, 22 C); BsAb captured on anti-human Fc, PVRIG-HIS as analyte, 1:1 fit
Protocol: (§1) All experiments were performed using a ProteOn XPR 36 instrument at 22° C. while samples were kept at 4° C. during the assay. First, high density capture surfaces were prepared with a goat anti-human Fc polyclonal antibody (Thermo Fisher) immobilized over all vertical capture lanes and horizontal interspots on a GLC chip (Bio Rad) using standard amine coupling. […] Human TIGIT-HIS monomer was obtained from Sino Biological, while human PVRIG-HIS was prepared in-house. […] For each “single-shot kinetics” cycle on the ProteOn instrument, a different antibody was captured over two unique vertical capture lanes for two minutes. After switching the buffer flow of the ProteOn to the horizontal direction, capture surfaces were stabilized for approximately 15-20 minutes. […] Three replicates of each concentration series of antigen were injected over two independent surfaces of the captured bispecific antibody along with several cycles of buffer injections for double-referencing. […] The sensorgrams of TIGIT and PVRIG injected over the captured bispecific antibody were processed using a ProteOn version of Scrubber and were fit to a 1:1 kinetic binding model, including a term for mass transport.

[3] = target: T2, TIGIT on human CMV pp65-specific CD8+ T …; test: cell-based or functional assay
[4] = target: T3, PVRIG on human CMV pp65-specific CD8+ T …; test: cell-based or functional assay
[5] = target: T4, Human TIGIT-HIS monomer (Sino …); test: SPR (ProteOn XPR 36, 22 C); BsAb captured on anti-human Fc, TIGIT-HIS monomer as analyte, 1:1 fit with kd held constant; rough estimate
Protocol: as §1

[6] = target: T4, Human TIGIT-HIS monomer (Sino …); test: SPR (ProteOn XPR 36, 22 C); BsAb captured on anti-human Fc, TIGIT-HIS monomer as analyte; value fixed, not fitted, because too little dissociation was seen in 15 min
Protocol: as §1

[7] = target: T4, Human TIGIT-HIS monomer (Sino …); test: SPR (ProteOn XPR 36, 22 C); BsAb captured on anti-human Fc, TIGIT-HIS monomer as analyte; kd/ka with kd held constant; rough estimate
Protocol: as §1

Row | Molecule | MFIr (MFI of target antibody divided by MFI of control antibody) [1] | Kd [2] | koff [2] | kon [2] | IFN-γ production EC50, donor 4 (both receptors blocked) [3] | IFN-γ production EC50, donor 72 (both receptors blocked) [3] | IFN-γ production EC50, donor 4 (both receptors blocked) [4] | IFN-γ production EC50, donor 72 (both receptors blocked) [4] | kon [5] | koff [6] | Kd [7]
1 | anti-TIGIT (clone: MBSA43)-allophycocyanin (APC; e-Bioscience) (antibody) | 4 fold |  |  |  |  |  |  |  |  |  | 
2 | CHA.7.518.1.H4(S241P)/CPA.9.086 bispecific antibody (bispecific antibody, human IgG4 S228P, kappa, lambda, also called CHA.7.518.1.H4(S241P)/CPA.9.086 BsAb; TIGIT-PVRIG Bispecific antibody) heavy 1: QVQLVQSGAEVKKPGASVKVSCKASGYTFTDYNINWVRQAPGQGLEWMGYIYPYIGGSGYAQKFQGRVTMTRDTSTSTVYMELSSLRSEDTAVYYCAREDKTARNAMDYWGQGTLVTVSSASTKGPSVFPLAPCSRSTSESTAALGCLVKDYFPEPVTVSWNSGALTSGVHTFPAVLQSSGLYSLSSVVTVPSSSLGTKTYTCNVDHKPSNTKVDKRVESKYGPPCPPCPAPEFLGGPSVFLFPPKPKDTLMISRTPEVTCVVVDVSQEDPEVQFNWYVDGVEVHNAKTKPREEQFNSTYRVVSVLTVLHQDWLNGKEYKCKVSNKGLPSSIEKTISKAKGQPREPQVYTLPPCQDELTKNQVSLWCLVKGFYPSDIAVEWESNGQPENNYKTTPPVLDSDGSFFLYSRLTVDKSRWQEGNVFSCSVMHEALHNHYTQKSLSLSPGK light 1: DIQMTQSPSSLSASVGDRVTITCRVSENIYSNLAWYQQKPGKAPKLLIYEATNLAEGVPSRFSGSGSGTDFTLTISSLQPEDFATYYCQHFWGTPYTFGQGTKLEIKRTVAAPSVFIFPPSDEQLKSGTASVVCLLNNFYPREAKVQWKVDNALQSGNSQESVTEQDSKDSTYSLSSTLTLSKADYEKHKVYACEVTHQGLSSPVTKSFNRGEC heavy 2: EVQLVETGGGLIQPGRSLRLSCAASGFTFSSYAMHWVRQAPGKGLEWVAVISYAGEVKYYADSVKGRFTISRDNSKNTLYLQMNSLRAEDTAVYYCARDPLPLHYYGMDVWGQGTTVTVSSASGQPKAAPSVTLFPPSSEELQANKATLVCLISDFYPGAVTVAWKADSSPVKAGVETTTPSKQSNNKYAASSYLSLTPEQWKSHRSYSCQVTHEGSTVEKTVAPTECSESKYGPPCPPCPAPEFLGGPSVFLFPPKPKDTLMISRTPEVTCVVVDVSQEDPEVQFNWYVDGVEVHNAKTKPREEQFNSTYRVVSVLTVLHQDWLNGKEYKCKVSNKGLPSSIEKTISKAKGQPREPQVCTLPPSQDELTKNQVSLSCAVKGFYPSDIAVEWESNGQPENNYKTTPPVLDSDGSFFLVSRLTVDKSRWQEGNVFSCSVMHEALHNHYTQKSLSLSPGK light 2: QSALTQPRSASGNPGQRVTISCSGSSSNMGRRPVNWYQQIPGTAPKLLIYSQNQRPSGVPDRFSGSQSGTSASLTISGLQSEDEAEYFCAVWDDIGRVLQLGGGTQLAVLSSASTKGPSVFPLAPSSKSTSGGTAALGCLVKDYFPEPVTVSWNSGALTSGVHTFPAVLQSSGLYSLSSVVTVPSSSLGTQTYICNVNHKPSNTKVDKKVEPKSC |  | 187 pM | 0.00024 s⁻¹ | 1.3e+06 M⁻¹ s⁻¹ | 360 pM | 530 pM | 360 pM | 530 pM | 3.9e+06 M⁻¹ s⁻¹ | ≤ 1e-05 s⁻¹ | ≤ 2.6 pM
